Results taken from patent US20260234220A1 (OSPEDALE SAN RAFFAELE S R L, published 2026).

What was measured:
Test in all cases: immunofluorescence on infected Vero E6 cells
[1] = biological target: T1, spike protein of SARS-CoV-2 P.1 (Gamma) clinical isolate (hCoV-19/Italy/LOM-UniSR8/2021); GISAID … (SARS-CoV-2, UniProt P0DTC2 14-1273)
T1 construct: whole, on cells

[2] = biological target: T2, spike protein of SARS-CoV-2 B.1.1.7 (Alpha) clinical isolate (19/Italy/LOM-UniSR7/2021); GISAID … (SARS-CoV-2, UniProt P0DTC2 14-1273)
T2 construct: whole, on cells

[3] = biological target: T3, spike protein of SARS-CoV-2 Delta clinical isolate (hCoV-19/Italy/LOM-UniSR12/2021; GISAID EPI_ISL_4198505) (SARS-CoV-2, UniProt P0DTC2 14-1273)
T3 construct: whole, on cells

Measured: binding result

B1: Fab BS.70 (Fab, V domains shown)
VH: LESGGGVVQPGTSLRLSCAASGFTFNNFGMHWVRQAPGKGLEWVAMISYEGSKDFYADSVKGRFTISKDHARNTVYLQMNSLRAEDTAEYYCAKDKAIFMISAGRTLDFWGQGTLVTVSS
VL: ELVMTQSPSSLSASVGDRVTITCRASQNIGIYLNWYQQKPGKAPKLLIYAASSLQNGVPSRFSGSGSGTDFTLTISTLQPEDFATYWCQQGYSTPLTFGGGTKVEIR
binds: [1] | [2] | [3]
